# Measurements from publication doi:10.1101/2020.01.12.903617, “The peptide sensor motif stabilizes the outward-facing conformation of TmrAB” (bioRxiv, 2020).
# No end group written: not given here. fluorescein = fluorescein label attached to the Cys side chain
# T1: TmrAB R132A^TmrA (Thermus thermophilus, UniProt Q72J05 1-600; Q72J04 1-578, R132A)
# T1 construct: TmrA, Thermus thermophilus, the chain of TmrAB with the canonical Walker B motif; TmrB, Thermus thermophilus, the chain of TmrAB with the non-canonical Walker B motif
# T1 sequence 1: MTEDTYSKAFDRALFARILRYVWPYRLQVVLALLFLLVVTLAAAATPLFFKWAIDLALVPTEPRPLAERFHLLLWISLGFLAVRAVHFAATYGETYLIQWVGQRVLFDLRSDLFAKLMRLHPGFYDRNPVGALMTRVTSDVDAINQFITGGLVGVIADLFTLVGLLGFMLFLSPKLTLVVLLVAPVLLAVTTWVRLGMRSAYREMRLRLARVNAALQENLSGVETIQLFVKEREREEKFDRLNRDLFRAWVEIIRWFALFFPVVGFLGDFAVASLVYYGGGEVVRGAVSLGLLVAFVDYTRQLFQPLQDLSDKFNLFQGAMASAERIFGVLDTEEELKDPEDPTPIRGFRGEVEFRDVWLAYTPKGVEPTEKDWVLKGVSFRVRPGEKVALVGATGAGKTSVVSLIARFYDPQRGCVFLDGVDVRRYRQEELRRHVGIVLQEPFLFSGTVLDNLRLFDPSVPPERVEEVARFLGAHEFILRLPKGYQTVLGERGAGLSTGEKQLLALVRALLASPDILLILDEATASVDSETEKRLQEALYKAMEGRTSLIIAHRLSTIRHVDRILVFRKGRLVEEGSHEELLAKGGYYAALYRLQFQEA
# T1 sequence 2: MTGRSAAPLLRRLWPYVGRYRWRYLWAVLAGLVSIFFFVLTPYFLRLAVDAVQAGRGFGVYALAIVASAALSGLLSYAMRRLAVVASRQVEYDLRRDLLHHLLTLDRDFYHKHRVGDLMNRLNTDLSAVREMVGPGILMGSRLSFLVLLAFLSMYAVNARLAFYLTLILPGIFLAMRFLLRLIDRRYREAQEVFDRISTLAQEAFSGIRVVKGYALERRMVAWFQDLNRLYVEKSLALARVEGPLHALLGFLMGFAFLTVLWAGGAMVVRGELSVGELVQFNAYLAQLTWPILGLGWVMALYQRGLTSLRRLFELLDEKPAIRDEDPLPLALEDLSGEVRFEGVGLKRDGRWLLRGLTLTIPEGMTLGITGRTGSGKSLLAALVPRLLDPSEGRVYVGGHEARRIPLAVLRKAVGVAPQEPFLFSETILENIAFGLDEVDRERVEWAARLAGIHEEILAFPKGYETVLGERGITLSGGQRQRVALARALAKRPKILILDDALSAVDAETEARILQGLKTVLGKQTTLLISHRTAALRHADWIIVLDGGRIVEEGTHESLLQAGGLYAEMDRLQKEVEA
# Target: T1, TmrAB R132A^TmrA
# Test: fluorescence polarisation; 1.7 uM TmrAB with 50 nM RRY(C^Fluorescein)KSTEL in SEC buffer (20 mM HEPES, 150 mM NaCl, pH 7, 0.05% ß-DDM), 15 minutes on ice, in the absence or presence of 5 mM ATP and 10 mM MgCl2; read at 25°C (the results say 4°C); signal normalized to WT without ATP
# Settings: both partners purified
binder,measurement,value
RRYC(fluorescein)KSTEL (fluorescein-labelled transport substrate peptide of TmrAB; also called fluorescently-labeled peptide substrate; peptide substrate; source: bought: Genscript) [fluorescent transport substrate peptide RRY(C^Fluorescein)KSTEL],binding result,binds
